Kd data for one substance are collected here from PMC11197336.

Experiment [1] addresses SepM_D221N (Streptococcus mutans). The experiment in a line: MST; SepM (50 nM) labelled on its His-tag with RED-tris-NTA; CSP-21 in a 16-point serial dilution from 100 µM; PBS pH 5.5; 25 °C; Monolith NT.115, triplicate.
Experiment [2] deals with SepM_G178D (Streptococcus mutans). Described as above.
The target of experiment [3] is SepM_control (Streptococcus mutans). Described as above.
In experiment [4] the target is SepM_D221N (Streptococcus mutans). The experiment in a line: MST; SepM (50 nM) labelled on its His-tag with RED-tris-NTA; CSP-21 in a 16-point serial dilution from 100 µM; PBS pH 5.5; 37 °C; Monolith NT.115, triplicate.
Experiment [5] has as its target SepM_G178D (Streptococcus mutans). The experiment is described as above.
For experiment [6], the target named is SepM_control (Streptococcus mutans). The experiment is described as above.
In experiment [7] the target is SepM_D221N (Streptococcus mutans). Kind of experiment: MST; SepM (50 nM) labelled on its His-tag with RED-tris-NTA; CSP-21 in a 16-point serial dilution from 100 µM; PBS pH 7.5; 25 °C; Monolith NT.115, triplicate.
For experiment [8], the target named is SepM_G178D (Streptococcus mutans). Described as above.
The target in experiment [9] is SepM_control (Streptococcus mutans). The experiment is described as above.
Experiment [10] concerns the target SepM_D221N (Streptococcus mutans). Kind of experiment: MST; SepM (50 nM) labelled on its His-tag with RED-tris-NTA; CSP-21 in a 16-point serial dilution from 100 µM; PBS pH 7.5; 37 °C; Monolith NT.115, triplicate.
The target in experiment [11] is SepM_G178D (Streptococcus mutans). The description is as above.
The target in experiment [12] is SepM_control (Streptococcus mutans). The description is as above.

For CSP-21 (peptide), the dissociation constant Kd in experiment [1] was 8.25 µM; in experiment [2] it was 44.2 µM; in [3] it was 33.1 µM; in [4], 7.52 µM; in experiment [5], 21.4 µM; in [6], 12.8 µM. In addition, the Kd in experiment [7] turned out to be 20.8 µM; in experiment [8], 3.02 µM; in [9], 15.9 µM; in [10], 28.7 µM; in experiment [11], 85 µM; in [12], 29.3 µM.

By Kd is commonly meant the concentration at which binding is half-saturated.
